Measurements as given in patent US10487337B2, “Methods for monocot plant improvement” (Agresearch Limited, priority 2014, dated 2019).

What was measured:
DELLA (RGA1) = target: T1, DELLA (RGA1) (Arabidopsis thaliana, UniProt Q9SLH3); assay: Yeast two-hybrid (Y2H) analysis between PPD and DELLA (RGA1); type: binding; conditions: PPD1-DBD as bait, 15 mM 3AT
T1 construct: expressed in transfected cells; host or cells: yeast strain MaV203
T1 sequence (Q9SLH3 with tags, fused parts or gaps): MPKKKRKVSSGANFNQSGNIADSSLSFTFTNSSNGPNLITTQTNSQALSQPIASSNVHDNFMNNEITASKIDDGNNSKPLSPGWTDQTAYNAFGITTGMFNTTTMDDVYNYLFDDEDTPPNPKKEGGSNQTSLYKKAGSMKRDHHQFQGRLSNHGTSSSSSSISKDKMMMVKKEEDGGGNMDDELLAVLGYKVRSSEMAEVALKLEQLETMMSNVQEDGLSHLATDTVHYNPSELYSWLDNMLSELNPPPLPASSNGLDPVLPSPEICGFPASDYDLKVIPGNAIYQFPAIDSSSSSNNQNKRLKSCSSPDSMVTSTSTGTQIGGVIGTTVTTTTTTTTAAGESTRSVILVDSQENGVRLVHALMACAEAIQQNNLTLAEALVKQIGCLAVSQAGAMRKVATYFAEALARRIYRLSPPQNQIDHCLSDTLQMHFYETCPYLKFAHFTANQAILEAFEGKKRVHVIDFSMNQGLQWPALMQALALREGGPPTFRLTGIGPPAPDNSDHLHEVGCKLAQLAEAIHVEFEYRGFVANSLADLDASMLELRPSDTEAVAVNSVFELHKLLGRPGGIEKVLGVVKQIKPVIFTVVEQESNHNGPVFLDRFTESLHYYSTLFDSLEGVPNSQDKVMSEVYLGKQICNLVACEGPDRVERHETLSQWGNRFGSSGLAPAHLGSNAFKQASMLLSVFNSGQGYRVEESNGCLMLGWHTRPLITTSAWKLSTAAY
Excerpt: The ProQuest two-hybrid system (Invitrogen) was used to analyse interactions between PPD1, and RGA1. Full length coding sequences of PPD1, together with truncation or deletion derivatives of PPD1 (PPD1Δppd, PPD1Δtify, and PPD1Δjas*) (FIG. 5), were Gateway sub-cloned into pDEST32 (N-terminal GAL4DBD) or pDEST22 (N-terminal GAL4AD). When translated these generated the following peptide sequences: 55, 65, 66, 67, 68, 7169, which are PPD1-DBD, RGA1, RGA1-AD, PPD1-ppd-DBD, PPD1-tify-DBD, PP1-jas*-DBD respectively.
Combinations of bait and prey constructs were used to co-transform yeast strain MaV203 (Invitrogen), with selection on synthetic dropout (SD) SD/-Leu/-Trp agar plates. Transformed strains were tested for interactions using 10 μl droplets of 1 in 10 and 1 in 100 dilutions on SD/-Leu/-Trp/-His plates with different concentrations of 3-aminotriazol (3-AT) (Sigma). The PPD1-RGA1 interaction was tested with PPD1-DBD used as bait. Transformed yeast was spotted as a ten-fold dilution on control medium (−2) or selective medium (−3) with 15 mM 3AT. Controls were empty vectors, DBD, GAL4 DNA binding domain, AD, GAL4 activation domain (FIG. 5).

BZR1 = target: T2, BZR1 (Arabidopsis thaliana, UniProt Q8S307); assay: BiFC interaction with BZR1 in Nicotiana benthamiana leaves; type: cell-based
T2 construct: expressed in transfected cells; host or cells: Nicotiana benthamiana leaves (Agrobacterium infiltration)
T2 sequence (Q8S307 1-336): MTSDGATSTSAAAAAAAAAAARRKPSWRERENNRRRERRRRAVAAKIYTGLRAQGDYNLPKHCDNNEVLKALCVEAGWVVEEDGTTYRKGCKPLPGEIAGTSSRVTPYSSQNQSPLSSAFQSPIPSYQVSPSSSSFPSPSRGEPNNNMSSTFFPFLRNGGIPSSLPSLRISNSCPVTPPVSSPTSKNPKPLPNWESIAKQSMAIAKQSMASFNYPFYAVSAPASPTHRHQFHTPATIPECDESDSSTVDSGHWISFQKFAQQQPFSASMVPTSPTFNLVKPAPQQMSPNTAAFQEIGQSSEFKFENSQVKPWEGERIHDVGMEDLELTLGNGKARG
Excerpt: The binary BiFC-Gateway YFP vectors pDEST-VYNE(R)^GW (Venus aa 1-173) and pDEST-VYCE(R)^GW (Venus aa 156-239) with N-terminal fusions, were used to construct the following vectors; pDESTnYFP-BZR1, pDESTnYFP-NINJA, pDESTnYFP-PPD1, pDESTcYFP-BZR1, pDESTcYFP-PPD1, pDESTcYFP-PPD1Δppd, pDESTcYFP-PPD1Δtify and pDESTcYFP-PPD1Δjas*. For transient in planta expression of proteins interacting with PPD1 or BZR, NINJA and TPL were Gateway® sub-cloned into pRSh1, to construct pRSh1-NINJA and pRSh1-TPL. Plasmids for co-immunoprecipitation: A synthesised DNA construct encoding PPD1 with a 3×c-myc C-terminal fusion was sub-cloned into pRSh1 to produce pRSh1-PPD1-3×c-myc, while the NINJA cDNA sequence was sub-cloned into pB7FWG2,0 (Karimi et al 2002, Trends Plant Sci. 7, 193-195) to construct pB7FWG2-NINJA-GFP. When expressed these constructs produced proteins listed in sequences 60, 62, 70 71 72 73 74 75 76 77 78 79: including TOPLESS (TPL), NINJA, Bimolecular Fluorescence (BiFC) nYFP, BiFC cYFP, BiFC nYFP-NINJA, BiFC nYFP-BZR1, BiFC cYFP-PPD1, BiFC cYFP-NINJA, BiFC cYFP-BZR1, BiFC cYFP-PPD1-ppd, BiFC cYFP-PPD1-tify, BiFC cYFP-PPD1-jas*.
Transient BiFC experiments were performed using combinations of pDESTnYFP and pDESTcYFP plasmids, with or without plasmids for the expression of NINJA (pRSh1-NINJA) or TPL (pRSh1-TPL) and Agrobacterium-infiltration of Nicotiana benthamiana leaves. For infiltration Agrobacterium tumefaciens GV3101 strains containing the binary vectors were re-suspended from plates and prepared for transformation as described for the LUC assay. All YFP and expression strains were mixed in ratios of 1:1 (vol/vol) with the addition of strain P19 at 1/10th volume. Five leaf discs were sampled from each infiltrated leaf after 40 h. Two hours prior to sampling for microscopic fluorescence observations leaves were infiltrated with a 1 μg/ml DAPI solution to stain nuclei. YFP fluorescence and DAPI staining was detected using an Olympus Fluoview FV10i confocal laser scanning microscope. Each experiment was repeated twice.

B1: PPD1: PEAPOD 1 protein of Arabidopsis thaliana, SEQ ID NO: 1 (protein, listed as Arabidopsis thaliana)
chain: MDVGVSPAKSILAKPLKLLTEEDISQLTREDCRKFLKDKGMRRPSWNKSQAIQQVLSLKALYEPGDDSGAGIFRKILVSQPVNPPRVTTTLIEPSNELEACGRVSYPEDNGACHRMDSPRSAEFSGGSGHFVSEKDGHKTTISPRSPAETSELVGQMTIFYSGKVNVYDGIPPEKARSIMHFAANPIDLPENGIFASSRMISKLISKEKMMELPQKGLEKANSSRDSGMEGQANRKVSLQRYREKRKDRKFSKAKKCPGVASSSLEMFLNCQPRMKAAYSQNLGCTGSPLHSQSPESQTKSPNLSVDLNSEGI
DELLA (RGA1)
  interaction with DELLA (RGA1): can directly bind to DELLA
BZR1; fully expanded leaves, co-expression of NINJA
  interaction with BZR1: restored
BZR1; pavement cells of immature Nicotiana benthamiana leaves
  interaction with BZR1: appears to interact with BZR1 in the nucleus
